From US20230124851A1 (INHIBRX LNC, published 2023)

Target: T1, human B7H3 (CD276) on the cell surface (human, UniProt Q5ZPR3 29-534)
T1 construct: B7H3 on A375 and other B7H3-positive or transfected cells
T1 sequence: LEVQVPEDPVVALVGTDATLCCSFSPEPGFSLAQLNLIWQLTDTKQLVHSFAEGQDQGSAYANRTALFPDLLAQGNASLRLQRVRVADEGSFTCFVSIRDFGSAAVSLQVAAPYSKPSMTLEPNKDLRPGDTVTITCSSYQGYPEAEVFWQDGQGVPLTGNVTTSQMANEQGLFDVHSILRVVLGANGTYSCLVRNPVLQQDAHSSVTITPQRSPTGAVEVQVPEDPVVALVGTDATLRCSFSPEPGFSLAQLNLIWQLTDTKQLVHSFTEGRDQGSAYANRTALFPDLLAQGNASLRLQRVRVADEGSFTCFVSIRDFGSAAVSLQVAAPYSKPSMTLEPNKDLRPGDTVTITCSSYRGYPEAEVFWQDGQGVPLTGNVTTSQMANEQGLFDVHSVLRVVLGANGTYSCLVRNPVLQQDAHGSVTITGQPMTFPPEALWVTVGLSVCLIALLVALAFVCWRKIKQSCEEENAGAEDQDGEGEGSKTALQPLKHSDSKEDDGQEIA
Experiment: flow cytometry on A375 cells (B7H3+), anti-human IgG APC secondary
Procedure: Binding of exemplary B7H3-targeting constrained CD3 engaging constructs set forth in Table E3 to CD3 on the surface of primary T cells or B7H3-expressing cells (A375) was assessed by flow cytometry. The T cells were primary T-cells that were negatively enriched from PBMCs isolated from healthy human donor peripheral blood leukopaks. Bound construct was detected with fluorophore-conjugated secondary antibodies specific for the human Fc (anti-human IgG APC secondary antibody) and binding was measured by flow cytometry. Cells incubated with secondary antibody only served as negative controls. Binding was compared to Dual-affinity Re-targeting Antibody (DART)-monomeric Fc format targeting B7H3 and CD3 (DART-Fc B7H3xCD3; see e.g. WO2017030926A1).

binding result: binds
B1: DART-Fc B7H3xCD3 (bispecific antibody)
chain 1: DIQLTQSPSFLSASVGDRVTITCKASQNVDTNVAWYQQKPGKAPKALIYSASYRYSGVPSRFSGSGSGTDFTLTISSLQPEDFATYYCQQYNNYPFTFGQGTKLEIKGGGSGGGGEVQLVESGGGLVQPGGSLRLSCAASGFTFSTYAMNWVRQAPGKGLEWVGRIRSKYNNYATYYADSVKDRFTISRDDSKNSLYLQMNSLKTEDTAVYYCVRHGNFGNSYVSWFAYWGQGTLVTVSSGGCGGGEVAALEKEVAALEKEVAALEKEVAALEKGGGDKTHTCPPCPAPEAAGGPSVFLFPPKPKDTLMISRTPEVTCVVVDVSHEDPEVKFNWYVDGVEVHNAKTKPREEQYNSTYRVVSVLTVLHQDWLNGKEYKCKVSNKALPAPIEKTISKAKGQPREPQVYTLPPSREEMTKNQVSLWCLVKGFYPSDIAVEWESNGQPENNYKTTPPVLDSDGSFFLYSKLTVDKSRWQQGNVFSCSVMHEALHNHYTQKSLSLSPGK
chain 2: QAVVTQEPSLTVSPGGTVTLTCRSSTGAVTTSNYANWVQQKPGQAPRGLIGGTNKRAPWTPARFSGSLLGGKAALTITGAQAEDEADYYCALWYSNLWVFGGGTKLTVLGGGGSGGGGEVQLVESGGGLVQPGGSLRLSCAASGFTFSSFGMHWVRQAPGKGLEWVAYISSDSSAIYYADTVKGRFTISRDNAKNSLYLQMNSLRDEDTAVYYCGRGRENIYYGSRLDYWGQGTTVTVSSGGCGGGKVAALKEKVAALKEKVAALKEKVAALKE
chain 3: not shown
notes: Comparator, an analog of the format of WO2017030926A1; three polypeptide chains; also called B7H3xCD3 DART-Fc
